According to US20090136433A1:

Biological target: hair (human) (human)
Experiment: binding test on 5 mg human hair; bound His-tagged protein detected with anti-polyhistidine peroxidase conjugate and TMB; buffer control A405 nm = 0.05

- A405 nm (absorption at 405 nm) (absorption at 405 nm): 0.12
Substance: Comparison protein YaaD from B. subtilis with His tag (from UniProt P37527 1-294)
